Tests used:
[1] = biological target: 6A; assay: size exclusion chromatography, self-association
[2] = biological target: 6B; assay: size exclusion chromatography, self-association
[3] = biological target: 6C; assay: size exclusion chromatography, self-association
[4] = biological target: 6D; assay: size exclusion chromatography, self-association
[5] = biological target: 6E; assay: size exclusion chromatography, self-association
[6] = biological target: 6F; assay: size exclusion chromatography, self-association
[7] = biological target: pda8d; assay: sedimentation equilibrium, monomer-dimer-tetramer model; monomer-to-dimer self-association
[8] = biological target: pda8d; assay: sedimentation equilibrium, monomer-dimer-tetramer model; dimer-to-tetramer self-association

B1: 6A (peptide)
peptide: RMEKLEDKVRELLRKNRRLEEEVRRLKELVGER
modifications: not checked
oligomerization state (N) [1]: 2

B2: 6B (peptide)
peptide: RMEKLEQKVKELLRKNERLEEEVERLKQLVGER
modifications: not checked
oligomerization state (N) [2]: 2

B3: 6C (peptide)
peptide: RMARLEAKVAALLAKNRRLEREVARLKALVGER
modifications: not checked
oligomerization state (N) [3]: 2

B4: 6D (peptide)
peptide: RMRELEEKVRRLLRKNEDLEREVKRLKELVGER
modifications: not checked
oligomerization state (N) [4]: 2

B5: 6E (peptide)
peptide: RMNTLERKVAKLLSKNANLEHEVNTLKQLVGER
modifications: not checked
oligomerization state (N) [5]: 2

B6: 6F (peptide)
peptide: RMAALEAKVAALLAKNAALEAEVAALKALVGER
modifications: not checked
oligomerization state (N) [6]: 4

B7: pda8d (peptide)
peptide: KPYTARIKGRTFSNEKELRDFLETFTGR
modifications: not checked
Kd [7]: 500 to 1500 µM
Kd [8]: > 4000 µM
